# Test results reported in paper PMC4507011.
# T1: Neurospora crassa lytic polysaccharide monooxygenase NcLPMO9F (Neurospora crassa) (UniProt Q1K4Q1)
# T1 sequence (chain, non-glycosylated; N-terminal histidine not methylated): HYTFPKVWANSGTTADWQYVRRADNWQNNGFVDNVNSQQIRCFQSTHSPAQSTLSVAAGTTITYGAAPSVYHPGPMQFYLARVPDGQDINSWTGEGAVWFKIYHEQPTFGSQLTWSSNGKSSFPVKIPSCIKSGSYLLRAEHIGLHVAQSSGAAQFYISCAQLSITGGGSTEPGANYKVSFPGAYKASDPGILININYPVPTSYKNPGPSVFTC
# Tests used:
# [1] = target: dehydrogenase domain (DH) of MtCDH variant M309A (Myriococcum thermophilum)
# [2] = target: dehydrogenase domain (DH) of MtCDH variant M309R (Myriococcum thermophilum)
# [3] = target: dehydrogenase domain (DH) of MtCDH variant N292S (Myriococcum thermophilum)
# [4] = target: dehydrogenase domain (DH) of MtCDH variant N700S (Myriococcum thermophilum)
# [5] = target: dehydrogenase domain (DH) of MtCDH variant R698S (Myriococcum thermophilum)
# [6] = target: dehydrogenase domain (DH) of MtCDH variant S298Q (Myriococcum thermophilum)
# [7] = target: dehydrogenase domain (DH) of MtCDH variant W295A (Myriococcum thermophilum)
# [8] = target: dehydrogenase domain (DH) of MtCDH variant Y549F (Myriococcum thermophilum)
# [9] = target: dehydrogenase domain (DH) of MtCDH variant Y619Q (Myriococcum thermophilum)
# [10] = target: dehydrogenase domain (DH) of Myriococcum thermophilum cellobiose dehydrogenase, wild type (Myriococcum thermophilum)
# [11] = target: T1, Neurospora crassa lytic polysaccharide monooxygenase NcLPMO9F (Neurospora crassa)
# [12] = target: T1, Neurospora crassa lytic polysaccharide monooxygenase NcLPMO9F (Neurospora crassa); remark: listed apart in the source
molecule,measurement,setting,value
cytochrome domain (CYT) of Myriococcum thermophilum cellobiose dehydrogenase (domain or fragment),"haem b reduction rate kobs (interdomain electron transfer) of 5 μM full-length MtCDH M309A with 25 mM cellobiose, stopped flow at 563 nm, 30 °C, pH 5.0",[1],0.056 s⁻¹
same,"haem b reduction rate kobs (interdomain electron transfer) of 5 μM full-length MtCDH M309R with 25 mM cellobiose, stopped flow at 563 nm, 30 °C, pH 5.0",[2],0.088 s⁻¹
same,"haem b reduction rate kobs (interdomain electron transfer) of 5 μM full-length MtCDH N292S with 25 mM cellobiose, stopped flow at 563 nm, 30 °C, pH 5.0",[3],0.95 s⁻¹
same,"haem b reduction rate kobs (interdomain electron transfer) of 5 μM full-length MtCDH N700S with 25 mM cellobiose, stopped flow at 563 nm, 30 °C, pH 5.0",[4],1.37 s⁻¹
same,"haem b reduction rate kobs (interdomain electron transfer) of 5 μM full-length MtCDH R698S with 25 mM cellobiose, stopped flow at 563 nm, 30 °C, pH 5.0",[5],0.011 s⁻¹
same,"haem b reduction rate kobs (interdomain electron transfer) of 5 μM full-length MtCDH S298Q with 25 mM cellobiose, stopped flow at 563 nm, 30 °C, pH 5.0",[6],0.09 s⁻¹
same,"haem b reduction rate kobs (interdomain electron transfer) of 5 μM full-length MtCDH W295A with 25 mM cellobiose, stopped flow at 563 nm, 30 °C, pH 5.0",[7],0.86 s⁻¹
same,"haem b reduction rate kobs (interdomain electron transfer) of 5 μM full-length MtCDH Y549F with 25 mM cellobiose, stopped flow at 563 nm, 30 °C, pH 5.0",[8],0.76 s⁻¹
same,"haem b reduction rate kobs (interdomain electron transfer) of 5 μM full-length MtCDH Y619Q with 25 mM cellobiose, stopped flow at 563 nm, 30 °C, pH 5.0",[9],0.38 s⁻¹
same,"haem b reduction rate kobs (flavin-to-haem interdomain electron transfer) of 5 μM full-length MtCDH wild type with 25 mM cellobiose, stopped flow at 563 nm, 30 °C, 50 mM sodium citrate pH 5.0",[10],0.76 s⁻¹
cytochrome domain of Neurospora crassa cellobiose dehydrogenase IIA (separate fragment) (domain or fragment) QTAPKTFTHPDTGIVFNTWSASDSQTKGGFTVGMALPSNALTTDATEFIGYLECSSAKNGANSGWCGVSLRGAMTNNLLITAWPSDGEVYTNLMFATGYAMPKNYAGDAKITQIASSVNATHFTLVFRCQNCLSWDQDGVTGGISTSNKGAQLGWVQAFPSPGNPTCPTQITLSQHDNGMGQWGAAFDSNIANPSYTAWAAKATKTVTGTCSGPVTTSIAATPVPTGVSFDYIVVGGGAGGIPVADKLSESGKSVLLIEKGFASTGEHGGTLKPEWLNNTSLTRFDVPGLCNQIWKDSDGIACSDTDQMAGCVLGGGTAINAGLWYKPYTKDWDYLFPSGWKGSDIAGATSRALSRIPGTTTPSQDGKRYLQQGFEVLANGLKASGWKEVDSLKDSEQKNRTFSHTSYMYINGERGGPLATYLVSAKKRSNFKLWLNTAVKRVIREGGHITGVEVEAFRNGGYSGIIPVTNTTGRVVLSAGTFGSAKILLRSGIGPKDQLEVVKASADGPTMVSNSSWIDLPVGHNLVDHTNTDTVIQHNNVTFYDFYKAWDNPNTTDMNLYLNGRSGIFAQAAPNIGPLFWEEITGADGIVRQLHWTARVEGSFETPDGYAMTMSQYLGRGATSRGRMTLSPTLNTVVSDLPYLKDPNDKAAVVQGIVNLQKALANVKGLTWAYPSANQTAADFVDKQPVTYQSRRSNHWMGTNKMGTDDGRSGGTAVVDTNTRVYGTDNLYVVDASIFPGVPTTNPTAYIVVAAEHAAAKILAQPANEAVPKWGWCGGPTYTGSQTCQAPYKCEKQNDWYWQCV,"haem b re-oxidation rate (kobs) of reduced NcCYT (4 μM) mixed with NcLPMO9F (20 μM), stopped flow at 563 nm, 30 °C, 50 mM sodium citrate pH 5.0 (re-oxidation by oxygen alone 0.0007 s^−1)",[11],67.2 s⁻¹
dehydrogenase domain of Neurospora crassa cellobiose dehydrogenase IIA (separate fragment) (domain or fragment) QTAPKTFTHPDTGIVFNTWSASDSQTKGGFTVGMALPSNALTTDATEFIGYLECSSAKNGANSGWCGVSLRGAMTNNLLITAWPSDGEVYTNLMFATGYAMPKNYAGDAKITQIASSVNATHFTLVFRCQNCLSWDQDGVTGGISTSNKGAQLGWVQAFPSPGNPTCPTQITLSQHDNGMGQWGAAFDSNIANPSYTAWAAKATKTVTGTCSGPVTTSIAATPVPTGVSFDYIVVGGGAGGIPVADKLSESGKSVLLIEKGFASTGEHGGTLKPEWLNNTSLTRFDVPGLCNQIWKDSDGIACSDTDQMAGCVLGGGTAINAGLWYKPYTKDWDYLFPSGWKGSDIAGATSRALSRIPGTTTPSQDGKRYLQQGFEVLANGLKASGWKEVDSLKDSEQKNRTFSHTSYMYINGERGGPLATYLVSAKKRSNFKLWLNTAVKRVIREGGHITGVEVEAFRNGGYSGIIPVTNTTGRVVLSAGTFGSAKILLRSGIGPKDQLEVVKASADGPTMVSNSSWIDLPVGHNLVDHTNTDTVIQHNNVTFYDFYKAWDNPNTTDMNLYLNGRSGIFAQAAPNIGPLFWEEITGADGIVRQLHWTARVEGSFETPDGYAMTMSQYLGRGATSRGRMTLSPTLNTVVSDLPYLKDPNDKAAVVQGIVNLQKALANVKGLTWAYPSANQTAADFVDKQPVTYQSRRSNHWMGTNKMGTDDGRSGGTAVVDTNTRVYGTDNLYVVDASIFPGVPTTNPTAYIVVAAEHAAAKILAQPANEAVPKWGWCGGPTYTGSQTCQAPYKCEKQNDWYWQCV,"re-oxidation rate of the FAD cofactor of NcDH (10 μM) in the presence of 50 μM NcLPMO9F, stopped flow at 450 nm (0.0444 s^–1 without LPMO): unchanged, no electron transfer",[12],0.0442 s⁻¹
